Measurements reported in article PMC4875570.
Where “and” joins values, the source holds several entries; their conditions need not be identical. Equal entries are not always repeated.

How the values were obtained:
[1] = molecular target: severe acute respiratory syndrome (SARS) coronavirus papain-like protease (PLpro), wild type (SARS coronavirus) (UniProt P0C6X7)
[2] = molecular target: severe acute respiratory syndrome (SARS) coronavirus papain-like protease (PLpro), wild type (SARS coronavirus) (UniProt P0C6X7); test: inhibition of AMC substrate cleavage

“triazole-linked diUb^Lys48-AMC (from UniProt P0CG48) (complex)” was tested, and the KM of triazole-linked diUb^Lys48-AMC cleavage [1] was 33.4 µM.
In the case of ISG15-AMC, the KM of ISG15-AMC cleavage [1] is reported as 15.9 µM and the apparent kcat/KM of ISG15-AMC cleavage (Michaelis-Menten kinetics) [1] is reported as 598000 M⁻¹ s⁻¹.
Substance monoUb-AMC (from UniProt P0CG48 1-76) has a KM of monoUb-AMC cleavage [1] of 15.1 µM and an apparent kcat/KM of monoUb-AMC cleavage (Michaelis-Menten kinetics) [1] of 33300 M⁻¹ s⁻¹.
“Lys48-linked tri-ubiquitin (triUb^Lys48), free chain (from UniProt P0CG48 1-76) (complex)” was tested, and the Ki [2] was 10.6 µM and 10.1 µM and 4.08 µM.
